These results are taken from IntAct's records for PubMed 16319076.

The chains are these.
B1: Profilin-2 (Mus musculus), Q9JJV2-1 (parent)
chain: MAGWQSYVDNLMCDGCCQEAAIVGYCDAKYVWAATAGGVFQSITPVEIDMIVGKDREGFFTNGLTLGAKKCSVIRDSLYVDGDCTMDIRTKSQGGEPTYNVAVGRAGRVLVFVMGKEGVHGGGLNKKAYSMAKYLRDSGF
partner: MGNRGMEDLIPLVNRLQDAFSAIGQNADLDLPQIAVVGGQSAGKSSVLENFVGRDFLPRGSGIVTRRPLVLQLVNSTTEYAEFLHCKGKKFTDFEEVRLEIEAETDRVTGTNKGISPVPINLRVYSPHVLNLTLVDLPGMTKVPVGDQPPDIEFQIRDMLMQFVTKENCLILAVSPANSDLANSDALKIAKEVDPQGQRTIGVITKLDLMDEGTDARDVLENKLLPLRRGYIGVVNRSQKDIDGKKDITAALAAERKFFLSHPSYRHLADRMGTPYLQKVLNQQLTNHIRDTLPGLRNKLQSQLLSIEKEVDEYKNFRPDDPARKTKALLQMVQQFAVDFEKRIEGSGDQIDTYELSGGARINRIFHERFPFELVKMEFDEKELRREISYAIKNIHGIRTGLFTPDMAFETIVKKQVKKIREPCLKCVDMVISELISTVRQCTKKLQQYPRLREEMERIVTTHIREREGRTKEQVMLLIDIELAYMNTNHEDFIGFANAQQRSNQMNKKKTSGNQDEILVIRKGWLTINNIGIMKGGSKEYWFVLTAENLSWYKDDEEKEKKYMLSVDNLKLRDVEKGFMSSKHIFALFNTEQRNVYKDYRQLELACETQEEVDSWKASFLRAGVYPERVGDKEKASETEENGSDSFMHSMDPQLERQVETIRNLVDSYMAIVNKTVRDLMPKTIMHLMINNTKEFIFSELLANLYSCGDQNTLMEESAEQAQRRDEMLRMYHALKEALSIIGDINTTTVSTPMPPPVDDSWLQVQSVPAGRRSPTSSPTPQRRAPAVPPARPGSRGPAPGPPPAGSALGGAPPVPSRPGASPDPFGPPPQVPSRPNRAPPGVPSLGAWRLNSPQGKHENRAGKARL

The variants in the test derive from B1. The conditions noted are these: with dyn1_mouse Dnm1, P39053.
MAGWQSYVDNLMCDGCCQEAAIVGYCDAKYVWAATAGGVFQSITPVEIDMIVGKDREGFFTNGLTLGAKKCSVIRDSLYVDGDCTMDIRTKSQGGEPTYNVAVGRAGRVLVFVMGKEGVHGGGLNKKAYSMAKYLRDDGF: the “effect of a mutation on the interaction” value is “decreasing interaction”.
